Measurements: patent US8541373B2, “BChE albumin fusions for the treatment of cocaine abuse” (priority 2009, dated 2013)

Test system: cocaine
Assay: Plasma cocaine, benzoylecgonine and ecgonine methyl ester (LC-MS) and cocaine PK after IV cocaine post-AlbuBChE
Type: in vivo, cynomolgus monkeys
Experimental: Blood was placed into K2EDTA blood collection tubes with esterase inhibitor diisopropylfluorophosphate (DFP). Tubes were inverted several times and placed on wet ice upon collection. Samples were centrifuged at 2-8° C. within 45 minutes of collection. The resultant plasma was recovered and a single 200 μL aliquot of plasma was placed into polypropylene tubes. Plasma samples were frozen over dry ice and stored at −75±15° C.
The following outline describes the LC-MS-based assay employed for the measurement of cocaine in plasma samples. Prior to MS analysis, plasma samples, calibration standards and controls were extracted using supported liquid extraction (SLE-ISOLUTE, Biotage). Twenty-five microliters of samples (25 μL) received 150 μl of 5% Ammonium hydroxide and 25 μl internal standard solution (Cocaine-d3). After mixing and transfer to SLE plate, samples were eluted with methylene chloride and evaporated to dryness. After resuspension in 50 μl of reconstitution solution—5% ACM in 10 mM ammonium acetate in water, 10 μl was injected onto Thermo Hypercarb column at 0.5 ml/min. Mobile phase was biphasic. Mass spectrophotometric detection was performed using Api 4000, APCI positive interface and Multiple Reaction Monitoring (MRM). Plasma concentrations of cocaine, benzoylecgonine and ecgonine methyl ester were determined using this assay.
When the data permits, pharmacokinetic parameter values for cocaine and its metabolites were determined using plasma concentration-times profiles for individual animals at all the study days of cocaine administration. […] Specifically the model for non-compartmental analysis with IV bolus input for cocaine and extravascular input for the metabolites.

[1] = 1 mg/kg IM, cocaine 1 mg/kg IV 96 hr post-AlbuBChE, 20 min after cocaine
[2] = 1 mg/kg IM, cocaine 1 mg/kg IV 96 hr post-AlbuBChE, 30 min after cocaine
[3] = 1 mg/kg IM, cocaine 1 mg/kg IV 96 hr post-AlbuBChE, 40 min after cocaine
[4] = 1 mg/kg IM, cocaine 1 mg/kg IV 96 hr post-AlbuBChE, 60 min after cocaine
[5] = 1 mg/kg IM, cocaine 1 mg/kg IV 120 hr post-AlbuBChE
[6] = 1 mg/kg IM, cocaine 1 mg/kg IV 120 hr post-AlbuBChE, 5 min after cocaine
[7] = 1 mg/kg IM, cocaine 1 mg/kg IV 120 hr post-AlbuBChE, 10 min after cocaine
[8] = 1 mg/kg IM, cocaine 1 mg/kg IV 120 hr post-AlbuBChE, 15 min after cocaine
[9] = 1 mg/kg IM, cocaine 1 mg/kg IV 120 hr post-AlbuBChE, 20 min after cocaine
[10] = 1 mg/kg IM, cocaine 1 mg/kg IV 120 hr post-AlbuBChE, 30 min after cocaine
[11] = 1 mg/kg IM, cocaine 1 mg/kg IV 120 hr post-AlbuBChE, 40 min after cocaine
[12] = 1 mg/kg IM, cocaine 1 mg/kg IV 120 hr post-AlbuBChE, 60 min after cocaine
[13] = 1 mg/kg IM, cocaine 1 mg/kg IV 240 hr post-AlbuBChE
[14] = 1 mg/kg IM, cocaine 1 mg/kg IV 240 hr post-AlbuBChE, 5 min after cocaine
[15] = 1 mg/kg IM, cocaine 1 mg/kg IV 240 hr post-AlbuBChE, 10 min after cocaine
[16] = 1 mg/kg IM, cocaine 1 mg/kg IV 240 hr post-AlbuBChE, 15 min after cocaine
[17] = 1 mg/kg IM, cocaine 1 mg/kg IV 240 hr post-AlbuBChE, 20 min after cocaine
[18] = 1 mg/kg IM, cocaine 1 mg/kg IV 240 hr post-AlbuBChE, 30 min after cocaine
[19] = 1 mg/kg IM, cocaine 1 mg/kg IV 240 hr post-AlbuBChE, 40 min after cocaine
[20] = 1 mg/kg IM, cocaine 1 mg/kg IV 240 hr post-AlbuBChE, 60 min after cocaine
[21] = 5 mg/kg IM, cocaine 1 mg/kg IV 2 hr post-AlbuBChE
[22] = 5 mg/kg IM, cocaine 1 mg/kg IV 2 hr post-AlbuBChE, 5 min after cocaine
[23] = 5 mg/kg IM, cocaine 1 mg/kg IV 2 hr post-AlbuBChE, 10 min after cocaine
[24] = 5 mg/kg IM, cocaine 1 mg/kg IV 2 hr post-AlbuBChE, 15 min after cocaine
[25] = 5 mg/kg IM, cocaine 1 mg/kg IV 2 hr post-AlbuBChE, 20 min after cocaine
[26] = 5 mg/kg IM, cocaine 1 mg/kg IV 2 hr post-AlbuBChE, 30 min after cocaine
[27] = 5 mg/kg IM, cocaine 1 mg/kg IV 2 hr post-AlbuBChE, 40 min after cocaine
[28] = 5 mg/kg IM, cocaine 1 mg/kg IV 2 hr post-AlbuBChE, 60 min after cocaine
[29] = 5 mg/kg IM, cocaine 1 mg/kg IV 48 hr post-AlbuBChE
[30] = 5 mg/kg IM, cocaine 1 mg/kg IV 48 hr post-AlbuBChE, 5 min after cocaine

AlbuBChE
Ecgonine methyl ester plasma concentration (mean) [1]: 47.3 ng/mL | Mean benzoylecgonine plasma concentration [1]: 43.7 ng/mL | Mean cocaine plasma concentration [1]: 208 ng/mL | Ecgonine methyl ester plasma concentration (mean) [2]: 57.3 ng/mL | Mean benzoylecgonine plasma concentration [2]: 47.4 ng/mL | Mean cocaine plasma concentration [2]: 162 ng/mL | Ecgonine methyl ester plasma concentration (mean) [3]: 64.4 ng/mL | Mean benzoylecgonine plasma concentration [3]: 46.7 ng/mL | Mean cocaine plasma concentration [3]: 123 ng/mL | Ecgonine methyl ester plasma concentration (mean) [4]: 59.9 ng/mL | Mean benzoylecgonine plasma concentration [4]: 49.6 ng/mL | Mean cocaine plasma concentration [4]: 64.8 ng/mL | Mean benzoylecgonine AUC(0-t) [5]: 2809 ng·min/mL | Mean cocaine AUC % Extrap [5]: 22.4% | Mean cocaine AUC(0-t) [5]: 11526 ng·min/mL | Mean cocaine AUC(0-∞) [5]: 14838 ng·min/mL | Mean cocaine C0 [5]: 491 ng/mL | Mean cocaine CI [5]: 67.4 mL/min/kg | Mean cocaine Vss [5]: 2.687 L/kg | Mean cocaine t½ [5]: 28.6 min | Ecgonine methyl ester plasma concentration (mean) [6]: 42.7 ng/mL | Mean benzoylecgonine plasma concentration [6]: 37.2 ng/mL | Mean cocaine plasma concentration [6]: 356 ng/mL | Ecgonine methyl ester plasma concentration (mean) [7]: 27.4 ng/mL | Mean benzoylecgonine plasma concentration [7]: 38.9 ng/mL | Mean cocaine plasma concentration [7]: 263 ng/mL | Ecgonine methyl ester plasma concentration (mean) [8]: 37.8 ng/mL | Mean benzoylecgonine plasma concentration [8]: 42.2 ng/mL | Mean cocaine plasma concentration [8]: 233 ng/mL | Ecgonine methyl ester plasma concentration (mean) [9]: 31.8 ng/mL | Mean benzoylecgonine plasma concentration [9]: 40.2 ng/mL | Mean cocaine plasma concentration [9]: 202 ng/mL | Ecgonine methyl ester plasma concentration (mean) [10]: 104 ng/mL | Mean benzoylecgonine plasma concentration [10]: 51.3 ng/mL | Mean cocaine plasma concentration [10]: 161 ng/mL | Ecgonine methyl ester plasma concentration (mean) [11]: 68.6 ng/mL | Mean benzoylecgonine plasma concentration [11]: 50.9 ng/mL | Mean cocaine plasma concentration [11]: 141 ng/mL | Ecgonine methyl ester plasma concentration (mean) [12]: 76.8 ng/mL | Mean benzoylecgonine plasma concentration [12]: 54.4 ng/mL | Mean cocaine plasma concentration [12]: 79.7 ng/mL | Mean benzoylecgonine AUC(0-t) [13]: 3660 ng·min/mL | Mean cocaine AUC % Extrap [13]: 26.7% | Mean cocaine AUC(0-t) [13]: 14364 ng·min/mL | Mean cocaine AUC(0-∞) [13]: 19623 ng·min/mL | Mean cocaine C0 [13]: 467 ng/mL | Mean cocaine CI [13]: 51.1 mL/min/kg | Mean cocaine Vss [13]: 2.288 L/kg | Mean cocaine t½ [13]: 31.0 min | Ecgonine methyl ester plasma concentration (mean) [14]: 92.7 ng/mL | Mean benzoylecgonine plasma concentration [14]: 40.0 ng/mL | Mean cocaine plasma concentration [14]: 397 ng/mL | Ecgonine methyl ester plasma concentration (mean) [15]: 21.9 ng/mL | Mean benzoylecgonine plasma concentration [15]: 47.2 ng/mL | Mean cocaine plasma concentration [15]: 340 ng/mL | Ecgonine methyl ester plasma concentration (mean) [16]: 25.9 ng/mL | Mean benzoylecgonine plasma concentration [16]: 55.0 ng/mL | Mean cocaine plasma concentration [16]: 300 ng/mL | Ecgonine methyl ester plasma concentration (mean) [17]: 29.5 ng/mL | Mean benzoylecgonine plasma concentration [17]: 56.7 ng/mL | Mean cocaine plasma concentration [17]: 259 ng/mL | Ecgonine methyl ester plasma concentration (mean) [18]: 41.3 ng/mL | Mean benzoylecgonine plasma concentration [18]: 64.6 ng/mL | Mean cocaine plasma concentration [18]: 218 ng/mL | Ecgonine methyl ester plasma concentration (mean) [19]: 51.8 ng/mL | Mean benzoylecgonine plasma concentration [19]: 68.3 ng/mL | Mean cocaine plasma concentration [19]: 181 ng/mL | Ecgonine methyl ester plasma concentration (mean) [20]: 54.3 ng/mL | Mean benzoylecgonine plasma concentration [20]: 75.2 ng/mL | Mean cocaine plasma concentration [20]: 117 ng/mL | Mean benzoylecgonine AUC(0-t) [21]: 1405 ng·min/mL | Mean cocaine AUC(0-t) [21]: 3289 ng·min/mL | Mean cocaine C0 [21]: 271 ng/mL | Ecgonine methyl ester plasma concentration (mean) [22]: 337 ng/mL | Mean benzoylecgonine plasma concentration [22]: 22.3 ng/mL | Mean cocaine plasma concentration [22]: 145 ng/mL | Ecgonine methyl ester plasma concentration (mean) [23]: 321 ng/mL | Mean benzoylecgonine plasma concentration [23]: 23.7 ng/mL | Mean cocaine plasma concentration [23]: 77.9 ng/mL | Ecgonine methyl ester plasma concentration (mean) [24]: 363 ng/mL | Mean benzoylecgonine plasma concentration [24]: 22.0 ng/mL | Mean cocaine plasma concentration [24]: 43.5 ng/mL | Ecgonine methyl ester plasma concentration (mean) [25]: 331 ng/mL | Mean benzoylecgonine plasma concentration [25]: 22.9 ng/mL | Mean cocaine plasma concentration [25]: 12.8 ng/mL | Ecgonine methyl ester plasma concentration (mean) [26]: 266 ng/mL | Mean benzoylecgonine plasma concentration [26]: 31.1 ng/mL | Mean cocaine plasma concentration [26]: 110 ng/mL | Ecgonine methyl ester plasma concentration (mean) [27]: 308 ng/mL | Mean benzoylecgonine plasma concentration [27]: 21.3 ng/mL | Mean cocaine plasma concentration [27]: 4.96 ng/mL | Ecgonine methyl ester plasma concentration (mean) [28]: 248 ng/mL | Mean benzoylecgonine plasma concentration [28]: 20.1 ng/mL | Mean cocaine plasma concentration [28]: 2.26 ng/mL | Mean benzoylecgonine AUC(0-t) [29]: 1441 ng·min/mL | Mean cocaine AUC % Extrap [29]: 3.0% | Mean cocaine AUC(0-t) [29]: 3015 ng·min/mL | Mean cocaine AUC(0-∞) [29]: 3110 ng·min/mL | Mean cocaine C0 [29]: 177 ng/mL | Mean cocaine CI [29]: 325 mL/min/kg | Mean cocaine Vss [29]: 5.729 L/kg | Mean cocaine t½ [29]: 11.4 min | Ecgonine methyl ester plasma concentration (mean) [30]: 119 ng/mL | Mean benzoylecgonine plasma concentration [30]: 20.0 ng/mL | Mean cocaine plasma concentration [30]: 126 ng/mL
